Results from patent US20140322307A1 (LIPOTEC S A, published 2014).

Each binder was assayed against T1, Proteinase-Activated Receptor-2 (human, on human keratinocytes) (human, UniProt P55085 37-397) (assay: cell-based or functional assay).
T1 sequence (looked up): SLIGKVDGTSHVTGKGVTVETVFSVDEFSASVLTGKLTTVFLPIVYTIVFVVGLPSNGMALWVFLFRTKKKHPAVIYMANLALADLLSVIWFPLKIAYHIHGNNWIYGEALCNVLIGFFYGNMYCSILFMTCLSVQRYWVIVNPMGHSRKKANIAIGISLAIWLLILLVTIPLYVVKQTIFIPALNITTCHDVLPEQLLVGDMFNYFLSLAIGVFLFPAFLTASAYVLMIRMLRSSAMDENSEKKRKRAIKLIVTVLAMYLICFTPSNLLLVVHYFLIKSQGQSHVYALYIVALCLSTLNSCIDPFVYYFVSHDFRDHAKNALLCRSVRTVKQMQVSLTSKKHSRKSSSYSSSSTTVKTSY

Binder	Inhibition PAR-2 activity (calcium fluorescence, human keratinocytes, peptide at 1 mg/mL) [%]	PAR-2 activity (calcium fluorescence, human keratinocytes, peptide at 1 mg/mL) [%]
Ac-FMQFHS-NH2 [Ac-L-Phe-L-Met-L-Gln-L-Phe-L-His-L-Ser-NH2]	23	77
Ac-FFRFIV-NH2 [Ac-L-Phe-L-Phe-L-Arg-L-Phe-L-Ile-L-Val-NH2]	53.7	46.3
Ac-SFQFHS-NH2 [Ac-L-Ser-L-Phe-L-Gln-L-Phe-L-His-L-Ser-NH2]	9.9	90.1
Ac-FFQFHV-NH2 [Ac-L-Phe-L-Phe-L-Gln-L-Phe-L-His-L-Val-NH2]	19.9	80.1
Ac-SFRFIV-NH2 [Ac-L-Ser-L-Phe-L-Arg-L-Phe-L-Ile-L-Val-NH2]	58.9	41.1
Ac-FFRDHV-NH2 [Ac-L-Phe-L-Phe-L-Arg-L-Asp-L-His-L-Val-NH2]	60.3	39.7
Ac-FFQFIV-NH2 [Ac-L-Phe-L-Phe-L-Gln-L-Phe-L-Ile-L-Val-NH2]	24.1	75.9
Ac-FFQFHS-NH2 [Ac-L-Phe-L-Phe-L-Gln-L-Phe-L-His-L-Ser-NH2]	37.4	62.6
Ac-SFQFIV-NH2 [Ac-L-Ser-L-Phe-L-Gln-L-Phe-L-Ile-L-Val-NH2]	26.2	73.8
Ac-FFQFIS-NH2 [Ac-L-Phe-L-Phe-L-Gln-L-Phe-L-Ile-L-Ser-NH2]	59.3	40.7
Ac-SMQFIV-NH2 [Ac-L-Ser-L-Met-L-Gln-L-Phe-L-Ile-L-Val-NH2]	23.4	76.7
Ac-FMQFIS-NH2 [Ac-L-Phe-L-Met-L-Gln-L-Phe-L-Ile-L-Ser-NH2]	89.1	10.9
Ac-SFQFIS-NH2 [Ac-L-Ser-L-Phe-L-Gln-L-Phe-L-Ile-L-Ser-NH2]	39	61
Ac-FFWFIS-NH2 [Ac-L-Phe-L-Phe-L-Trp-L-Phe-L-Ile-L-Ser-NH2]	66.3	33.7
Ac-FFWDIS-NH2 [Ac-L-Phe-L-Phe-L-Trp-L-Asp-L-Ile-L-Ser-NH2]	38.4	61.6
Ac-FMWFIV-NH2 [Ac-L-Phe-L-Met-L-Trp-L-Phe-L-Ile-L-Val-NH2]	20.7	79.3
Ac-SFWFHV-NH2 [Ac-L-Ser-L-Phe-L-Trp-L-Phe-L-His-L-Val-NH2]	58.3	41.7
Ac-FMQDIV-NH2 [Ac-L-Phe-L-Met-L-Gln-L-Asp-L-Ile-L-Val-NH2]	9.7	90.3
Ac-FMWDIV-NH2 [Ac-L-Phe-L-Met-L-Trp-L-Asp-L-Ile-L-Val-NH2]	86.1	13.9
Ac-SMWFIS-NH2 [Ac-L-Ser-L-Met-L-Trp-L-Phe-L-Ile-L-Ser-NH2]	67.8	32.2
Ac-FMWFIS-NH2 [Ac-L-Phe-L-Met-L-Trp-L-Phe-L-Ile-L-Ser-NH2]	67.7	32.3
Ac-FMRFIS-NH2 [Ac-L-Phe-L-Met-L-Arg-L-Phe-L-Ile-L-Ser-NH2]	35.1	64.9

Binder	Inhibition PAR-2 activity (calcium fluorescence, human keratinocytes, peptide at 1 mg/mL) [%]	PAR-2 activity (calcium fluorescence, human keratinocytes, peptide at 1 mg/mL) [%]
Ac-FFQDIS-NH2 [Ac-L-Phe-L-Phe-L-Gln-L-Asp-L-Ile-L-Ser-NH2]	27	73
Ac-SFRFIS-NH2 [Ac-L-Ser-L-Phe-L-Arg-L-Phe-L-Ile-L-Ser-NH2]	16.2	83.8
Ac-FMRFIV-NH2 [Ac-L-Phe-L-Met-L-Arg-L-Phe-L-Ile-L-Val-NH2]	40.9	59.1
Ac-SFWFIS-NH2 [Ac-L-Ser-L-Phe-L-Trp-L-Phe-L-Ile-L-Ser-NH2]	39.2	60.8
Ac-FFRDIV-NH2 [Ac-L-Phe-L-Phe-L-Arg-L-Asp-L-Ile-L-Val-NH2]	39	61
Ac-FFQDIV-NH2 [Ac-L-Phe-L-Phe-L-Gln-L-Asp-L-Ile-L-Val-NH2]	35.9	64.1
Ac-SMWFHV-NH2 [Ac-L-Ser-L-Met-L-Trp-L-Phe-L-His-L-Val-NH2]	13.5	86.5
Ac-SMQFIS-NH2 [Ac-L-Ser-L-Met-L-Gln-L-Phe-L-Ile-L-Ser-NH2]	52.6	47.4
Ac-SFWFHS-NH2 [Ac-L-Ser-L-Phe-L-Trp-L-Phe-L-His-L-Ser-NH2]	26.4	73.6
Ac-SMWFHS-NH2 [Ac-L-Ser-L-Met-L-Trp-L-Phe-L-His-L-Ser-NH2]	64.9	35.1
Ac-FMQFIV-NH2 [Ac-L-Phe-L-Met-L-Gln-L-Phe-L-Ile-L-Val-NH2]	28.6	71.4
Ac-FFWFHS-NH2 [Ac-L-Phe-L-Phe-L-Trp-L-Phe-L-His-L-Ser-NH2]	49.2	50.8
Ac-FFRFHV-NH2 [Ac-L-Phe-L-Phe-L-Arg-L-Phe-L-His-L-Val-NH2]	23.4	76.6
Ac-FMWFHS-NH2 [Ac-L-Phe-L-Met-L-Trp-L-Phe-L-His-L-Ser-NH2]	72.2	27.8
Ac-SMRFIV-NH2 [Ac-L-Ser-L-Met-L-Arg-L-Phe-L-Ile-L-Val-NH2]	75.2	24.8
Ac-FMQFHV-NH2 [Ac-L-Phe-L-Met-L-Gln-L-Phe-L-His-L-Val-NH2]	22.6	77.5
Ac-SMQFHV-NH2 [Ac-L-Ser-L-Met-L-Gln-L-Phe-L-His-L-Val-NH2]	15.1	84.9
Ac-FMRDHS-NH2 [Ac-L-Phe-L-Met-L-Arg-L-Asp-L-His-L-Ser-NH2]	66.9	33.1
Ac-FMWDIS-NH2 [Ac-L-Phe-L-Met-L-Trp-L-Asp-L-Ile-L-Ser-NH2]	26.5	73.5
Ac-FFWDHV-NH2 [Ac-L-Phe-L-Phe-L-Trp-L-Asp-L-His-L-Val-NH2]	14.8	85.2
Ac-FMRFHV-NH2 [Ac-L-Phe-L-Met-L-Arg-L-Phe-L-His-L-Val-NH2]	40	60
